Positions count from the first letter of the chain named.
T1: human DLL3 (human, UniProt Q9NYJ7 27-492, limits assumed)
T1 construct: also called hDLL3; DLL3 protein
T1 sequence: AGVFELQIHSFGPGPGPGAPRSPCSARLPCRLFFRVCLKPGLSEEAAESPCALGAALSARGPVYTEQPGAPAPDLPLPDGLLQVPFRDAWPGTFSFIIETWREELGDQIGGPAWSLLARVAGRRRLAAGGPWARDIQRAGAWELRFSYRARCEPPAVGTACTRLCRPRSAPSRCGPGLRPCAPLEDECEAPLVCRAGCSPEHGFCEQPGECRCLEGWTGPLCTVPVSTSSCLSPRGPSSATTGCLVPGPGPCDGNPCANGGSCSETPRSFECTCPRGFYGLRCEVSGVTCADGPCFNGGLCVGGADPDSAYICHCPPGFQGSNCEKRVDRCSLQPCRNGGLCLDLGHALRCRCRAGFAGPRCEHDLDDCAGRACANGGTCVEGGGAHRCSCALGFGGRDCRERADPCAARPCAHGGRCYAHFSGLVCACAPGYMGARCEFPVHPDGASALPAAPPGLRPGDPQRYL

T2: human ASCL1 (human, UniProt P50553 1-236, limits assumed)
T2 construct: Transcription factor; also called hASCL1; immobilized human ASCL1
T2 sequence (looked up): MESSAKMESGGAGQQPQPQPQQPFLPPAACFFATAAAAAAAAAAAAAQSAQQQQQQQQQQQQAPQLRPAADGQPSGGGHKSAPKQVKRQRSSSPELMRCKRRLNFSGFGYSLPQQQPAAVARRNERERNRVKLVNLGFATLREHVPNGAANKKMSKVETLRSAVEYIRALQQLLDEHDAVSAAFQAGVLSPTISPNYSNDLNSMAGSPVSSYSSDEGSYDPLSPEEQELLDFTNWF

B1: chimeric SC16.34 (antibody, human IgG1, kappa, V domains shown)
VH: QIQLVQSGPELKRPGETVKISCKASGYTFTNYGMNWVKQAPGKGLKWMGWINTYTGDPTYADDFKGRFAFSLETSASTAYLQINNLKNEDTATYFCARIGGNSPSDYWGQGTSLTVSS
VL: SIVMTQTPKFLLVSAGDRVTITCKASQSVSNDVAWYQQKPGQSPKLLIYYASNRYSGVPDRFTGSGYGTDFTFTISTVQAEDLAVYFCQQDYSSPWTFGGGTKLEIKR
notes: murine V regions on human IgG1/kappa; also called chimeric parent antibody of hSC16.34
B2: chimeric SC16.56 (antibody, human IgG1, kappa, V domains shown)
VH: B1 VH with R13K, G49A, D57E, Y80S, N84I, G101D, N102S, S113T
VL: B1 VL with A34V, S56T, T63A, T72S, S93T, K107R
notes: murine V regions on human IgG1/kappa; also called chimeric parent antibody of hSC16.56
B3: hSC16.13 (antibody, human IgG1, kappa, V domains shown)
VH: QITLKESGPTLVKPTQTLTLTCTFSGFSLSTSGMGVGWIRQPPGKALEWLAHIWWDDVKRYSPSLKSRLTITKDTSKNQVVLTMTNMDPVDTATYYCARIVSFDNDVVSAMDYWGQGTLVTVSS
VL: DIQMTQSPSSLSASVGDRVTITCSASSSVSYMYWYQQKPGKAPKLLIYLTSNLASGVPSRFSGSGSGTDFTLTISSLQPEDFATYYCQQWRSNPFTFGQGTKLEIKR
notes: humanized IgG1/kappa; also called humanized SC16.13
B4: chimeric SC16.25 (antibody, human IgG1, kappa, V domains shown)
VH: QVTLKESGPGILQPSQTLSLTCSFSGFSLSTSGMGVGWIRQPSGEGLEWLTDIWWDDNKYYNPSLKSRLTISKDTSSNQVFLNITSVDTADTATYYCARRVNYYYDPYYAMDYWGQGTSVTVSS
VL: QIVLTQSPAIMSASPGEKVTMTCSASSSVSYMHWYQQKSGTSPKRWIYDSSKLASGVPARFSGSGSGTSYSLTISSMEAEDAATYYCQQWSSNPLTFGAGTKLELKR
notes: murine V regions on human IgG1/kappa; also called chimeric parent antibody of hSC16.25
B5: SC16.148 (antibody, V domains shown)
VH: QIQLVQSGPELKKPGETVKISCKASGYTLTNYGMNWVKQAPGKGLKWMGWINTYTGEPTYADDFKGRFAFSLETSARIVYLQINNLKNEDTATYFCAKYEAHEGFVYWGQGTLVTVSA
VL: QIVLTQSPAIMSASPGEKVTMTCSASSSVSYMYWYQQKPGSSPRLLIYDTSNLASGVPVRFSGSGSGTSYSLTISRMEAEDTATYYCQEWSNNPLTFGDGTKLELK
notes: murine mAb
B6: SC16.147 (antibody, V domains shown)
VH: QIQLVQSGPELTKPGETVKISCKASGYTFTDYSLHWVKQALGKGLKWMGWINTETGEPAYADDFKGRFAFSLETSASTAYLQINDLKNEDTTTYFCGIYDGYAMDYWGQGTSVTVSS
VL: DIQMTQTASSLSASLGDRVTISCRASQDINNYLNWYQQKPDGTVKLLIYYTSRLHSGVPSRFSGSGSGTDYSLTISILEQEDIATYFCQQGDTLPWTFGGGTKLEIK
notes: murine mAb
B7: SC16.15 (antibody, V domains shown)
VH: QVQLQQSGAELAKPGASVKMSCKASGYTFTRYWIHWIKQRPGQGLEWIGYINPTTVYTEFNQNFKDKATLTADKSSTTASMQLSSLTSEDSAVYYCARGGSNFFDYWGQGTTLTVSS
VL: DIQMTQSPASLAASVGETVAITCRASENIYYNLAWYQQKQGKSPQLLIYTANSLEDGVPSRFSGSGSGTQYSLKINSMQPEDSATYFCKQAYDVPPTFGGGTKLEIK
notes: murine mAb
B8: SC72.91 (antibody, V domains shown)
VH: QVQLQQSGPEVVKPGASVKLSCKASGYTFTTYDINWVKQRPGQGLEWIGWIYFRDGTNKYNEKFKGKATLTVDTSSSTAYMELHSLTSEDSAVYFCASVYDGYYVSGFDIMDYWGQGTSVTVSS
VL: DVVLTQTPLSLPVSLGDQASIYCRSSQSIVHSNGNTYFEWYLQKPGQSPKLLIYKVSNRLSGVPDRFSGSGSGTDFTLKISRVEAVDLGIYYCFQASHVPFTFGAGTKLELK
notes: murine mAb
B9: SC72.63 (antibody, V domains shown)
VH: EVQLLQSGPELVKPGASVKMSCKASGYTLTDYNLHWVKQSHAKSLEWIGYINPYNGVTSYNQRFKGKATLTVNKSSSTAFMEFRSLTSEDSAVYYCVSLYYGDDPFACWGQGTLVTVST
VL: DIQMTQSPASLSASVGETVTMTCRASENIYSNLAWYQQKQGKSPQLLVYAATNLADDVPSRFSGSGSGTQFSLKINSLQPEDFGIYYCHHFYGSPLTFGAGTKLELK
notes: murine mAb
B10: SC72.52 (antibody, V domains shown)
VH: QVQLQQPGSVLVRPGASVKLSCKASGYTFTSYWMHWVKQRPGQGLEWIGEIYPNSGRTNYNEKFKGKATLTVDTSSSTAYVDLSSLTSEDSAVYYCHYYDDNYGYWGQGTTLTVSS
VL: DIVITQDELSNPVTSGESVSISCRSSKSLLYKDGKTYLNWFLQRPGQSPQLLIYLMSTRASGVSDRFSGSGSGTDFTLEISRVKAEDVGVYYCQQFVEYPLTFGAGTKLELK
notes: murine mAb
B11: SC72.132 (antibody, V domains shown)
VH: EVKLVESEGGLVQPGSSMKLSCTASGFTFSDYYMAWVRQVPEKGLEWVATIDYDGSNTYYLDSLKSRFIISRDNAKNILYLQMSSLKSEDTATYYCARDGGYDEDYFDYWGQGTTLTVSS
VL: DIVMSQSPSSLAVSVGEKVTLSCKSSQTLLYSSNQQNYLAWYQQKPGQSPKLLIYWASTRESGVPDRFTGSGSGTDFTLTISSVKAEDLAVYYCHQYYTYPFTFGSGTKLEIK
notes: murine mAb
B12: SC72.28 (antibody, V domains shown)
VH: DVQLQQSGAELVRPGALVKLSCKASGFNIKDYLIHWVKQRPEQGLEWIGCIDPENGNTIYDPRFQGKAKITSDTSSTTAYLRLTSLTSEDTAVYYCGRGGLDYWGQGTTLTVSS
VL: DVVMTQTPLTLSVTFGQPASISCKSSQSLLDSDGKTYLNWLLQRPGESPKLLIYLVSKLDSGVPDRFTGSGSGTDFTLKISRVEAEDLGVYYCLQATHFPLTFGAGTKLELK
notes: murine mAb
B13: SC72.93 (antibody, V domains shown)
VH: QVQLQQSGAELVRPGASVTLSCKASGYIFIDYEMHWVKQTPVHGLEWIGSIDPETGDTVYNQKFKGKATLTADKSSSTAYMELRSLTSEDSAVYYCSRGGLDYWGQGTTLTVSS
VL: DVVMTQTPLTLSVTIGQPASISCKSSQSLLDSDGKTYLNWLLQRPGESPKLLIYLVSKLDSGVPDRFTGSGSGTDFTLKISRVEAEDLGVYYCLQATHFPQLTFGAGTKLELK
notes: murine mAb; same VL as SC72.2
B14: SC72.165 (antibody, V domains shown)
VH: QVQLQQPGAELVRPGASVRLSCKASGYSFTSYWINWVKQRPGQGLEWIGNIYPGSSNTNYNEKFKRKATLTVDTSSSTAYMQLSSLTSDDSAVYYCARSESDYWGQGTTLTVSS
VL: DIVLTQSPASLAVSPGQRATISCKASQSVGYDGDTYLSWYQQKPGQPPKLLIYGVSILESGIPARFSGSGSGTDFTLNIHPVEEEDAATYYCQQSSEDPYTFGGGTKLEIK
notes: murine mAb
B15: SC72.216 (antibody, V domains shown)
VH: QIQLVQSGPELRKPGETVKISCKASGYTFTNYPMHWVKQAPGKGFKWMGWINTYSGVPSYADDFKGRFAFSLETSASSAYLQINNLKNEDMATYFCARHNYNSYDVFAYWGQGTLVTVSA
VL: B14 VL with L4V, P15L, G30D, T35S, L37M, S38N, V55A, I57N, S96N
notes: murine mAb
B16: SC72.181 (antibody, V domains shown)
VH: B14 VH with L11V, R13K, S28T, N57S, R66S, A97S
VL: B14 VL with P15L, G30D, Y31D, D34G, L37M, S56F, S96N
notes: murine mAb
B17: SC72.94 (antibody, V domains shown)
VH: QVQLQQPGTELVKPGASVKLSCKASAYTFTSLWIHWVKQRPGQGLEWIGDINPSIGDTYYNERFKSKATLTVDKSSSTAYMQLSSLTSEDSAVYYCTTGDSWGQGTTLTVSS
VL: DIQMNQSPSSLSASLGDTITITCRASQGISIWLSWYQQKPGNIPKLLIYKASNLHTGVPPSFSGSGSGTDFTLTISSLQPEDIATYYCLQSQSYPWTFGGGTKLEIK
notes: murine mAb
B18: SC72.76 (antibody, V domains shown)
VH: QVQLKESGPGLVAPSQSLSITCTVSDFSLTNYAVHWVRQSPGKGLEWLGVIWSDGNTDYNAPFISRLSISKDNSKSQVFFKMNSLQADDTAIYYCASYGDSAYWGQGTLVTVSA
VL: DIVLTQSPASLTVSLGQRATISCRASQSVRTSNYSYMHWYQQKPGQPPKLLIKYASNLESGVPARFSGSGSGTDFTLNIHPVEEEDTATYYCQHHWEIPFTFGGGTKLEIK
notes: murine mAb
B19: SC72.201 (antibody, V domains shown)
VH: EVNLEESGGGLVQPGGSMKLSCVASGFTFSNYWMNWVRQSPEKGLEWVAQIRSKSDNYATHYAESVKGRFTISRDDSKSSVYLQMNNLRSEDTGIYYCRTGPDVWGTGTTVTVSS
VL: DIQMTQSPASLSVSVGETVTITCRASENIYSSLAWYQQKQGNSPQLLVYAATKLADGVPSRFSGSGSGTQYSLKINSLQSEDFGSYYCQHFWGTTWTFGGGTKLEIK
notes: murine mAb
B20: SC72.96 (antibody, V domains shown)
VH: EVQLQQSGPELVKPGASVKMSCKASGYTLTAYNIHWVKQSHGKSLEWIGFINPHSGGTTYNEKFKGKATLTVNKSSSTANMELRSLTSEDSAVYYCASIYYYGSSYFDHWGQGTTLTVSS
VL: DIQMTQSPASLSASVGETVTMTCRASENIHSNLVWYQQKQGKSPQLLVYAATNLADGVPSRFSGSGSGSQFSLKIDSLQPEDFGSYLCQHFYGTPRTFGGGTKLEIK
notes: murine mAb

target: T1, human DLL3; assay: surface plasmon resonance

Binding result, binds:
B1
B2
B3
B4

target: T1, human DLL3; assay: screen on immobilized hDLL3 or h293-hDLL3 cells
Summary of the method: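 After 10 days in culture, supernatants of single-cell hybridomas from human DLL3-immunized mice were tested on cells and by solid-phase ELISA. A flow-cytometry signal above the control level counted as binding. The ELISA used DLL3-His coated at 0.5 μg/ml, HRP anti-mouse IgG and TMB, with reading at OD 450.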

Binding result, binds:
B5
B6
B7

target: T2, human ASCL1; assay: screen on immobilized hASCL1 or h293-hASCL1 cells

Binding result, binds:
B8
B9
B10
B11
B12
B13
B14
B15
B16
B17
B18
B19
B20
